Kd data for three molecules are collected here from PMC9949482 (2021).

For assay [1], the target named is T1, GRIP-1 (Homo sapiens, UniProt Q15596). As to the kind of experiment: thermal shift.
Assay [2] deals with T1, GRIP-1. In words: thermal shift, van't Hoff to 25 °C.

T1 sequence (Q15596 2-1464): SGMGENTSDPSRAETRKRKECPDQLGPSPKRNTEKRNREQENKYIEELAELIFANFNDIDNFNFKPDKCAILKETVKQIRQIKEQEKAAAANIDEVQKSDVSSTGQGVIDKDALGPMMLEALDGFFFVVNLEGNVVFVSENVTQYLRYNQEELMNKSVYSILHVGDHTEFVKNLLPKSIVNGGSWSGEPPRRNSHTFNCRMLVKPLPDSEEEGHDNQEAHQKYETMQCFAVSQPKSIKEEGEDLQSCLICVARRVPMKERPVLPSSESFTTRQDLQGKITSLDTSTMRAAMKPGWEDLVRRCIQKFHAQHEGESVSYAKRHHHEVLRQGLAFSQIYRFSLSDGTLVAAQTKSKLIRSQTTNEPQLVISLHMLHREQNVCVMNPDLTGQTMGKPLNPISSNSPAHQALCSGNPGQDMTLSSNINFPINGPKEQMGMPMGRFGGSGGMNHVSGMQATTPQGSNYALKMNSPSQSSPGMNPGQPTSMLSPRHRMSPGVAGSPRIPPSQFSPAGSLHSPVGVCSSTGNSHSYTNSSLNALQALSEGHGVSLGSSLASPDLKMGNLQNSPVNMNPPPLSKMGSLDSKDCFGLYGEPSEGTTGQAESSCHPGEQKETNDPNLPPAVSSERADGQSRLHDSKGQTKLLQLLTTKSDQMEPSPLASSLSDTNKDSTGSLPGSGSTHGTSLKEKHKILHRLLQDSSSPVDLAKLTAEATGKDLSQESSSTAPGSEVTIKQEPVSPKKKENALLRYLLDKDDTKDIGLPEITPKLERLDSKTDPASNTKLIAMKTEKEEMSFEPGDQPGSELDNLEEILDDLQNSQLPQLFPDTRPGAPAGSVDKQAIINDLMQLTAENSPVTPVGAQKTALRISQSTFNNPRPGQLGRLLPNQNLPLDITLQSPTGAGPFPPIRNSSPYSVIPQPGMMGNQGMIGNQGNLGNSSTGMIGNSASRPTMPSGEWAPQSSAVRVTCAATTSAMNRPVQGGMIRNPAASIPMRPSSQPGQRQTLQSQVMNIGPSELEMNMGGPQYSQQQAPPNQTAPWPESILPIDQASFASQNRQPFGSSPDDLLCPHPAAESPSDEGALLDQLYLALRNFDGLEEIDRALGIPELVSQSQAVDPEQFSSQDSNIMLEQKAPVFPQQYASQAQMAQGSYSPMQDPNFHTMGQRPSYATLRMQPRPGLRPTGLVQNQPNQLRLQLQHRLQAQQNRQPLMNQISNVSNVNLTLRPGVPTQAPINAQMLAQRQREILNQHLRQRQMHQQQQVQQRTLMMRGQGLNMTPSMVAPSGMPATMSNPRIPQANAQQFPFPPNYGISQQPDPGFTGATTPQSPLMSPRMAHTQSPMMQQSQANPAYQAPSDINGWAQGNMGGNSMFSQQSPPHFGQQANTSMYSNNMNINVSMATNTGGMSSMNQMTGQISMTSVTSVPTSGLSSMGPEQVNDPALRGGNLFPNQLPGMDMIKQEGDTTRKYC

B1: RXRα LBD (protein)
chain: NEDMPVERILEAELAVEPKTETYVEANMGLNPSSPNDPVTNICQAADKQLFTLVEWAKRIPHFSELPLDDQVILLRAGWNELLIASFSHRSIAVKDGILLATGLHVHRNSAHSAGVGAIFDRVLTELVSKMRDMQMDKTELGCLRAIVLFNPDSKGLSNPAEVEALREKVYASLEAYCKHKYPEQPGRFAKLLLRLPALRSIGLKCLEHLFFFKLIGDTPIDTFLMEMLEAP
modifications: UAB111
Turning to B1, the results for the Kd with GRIP-1 [1] and in the assay with GRIP-1 [2] were 24 µM and 1.8 µM, respectively.

B2: RXRα LBD (protein)
chain: NEDMPVERILEAELAVEPKTETYVEANMGLNPSSPNDPVTNICQAADKQLFTLVEWAKRIPHFSELPLDDQVILLRAGWNELLIASFSHRSIAVKDGILLATGLHVHRNSAHSAGVGAIFDRVLTELVSKMRDMQMDKTELGCLRAIVLFNPDSKGLSNPAEVEALREKVYASLEAYCKHKYPEQPGRFAKLLLRLPALRSIGLKCLEHLFFFKLIGDTPIDTFLMEMLEAP
modifications: UAB30
For the molecule B2, the Kd stood at 22 µM in the assay with GRIP-1 [1] and 0.74 µM with GRIP-1 [2].

B3: RXRα LBD (protein)
chain: NEDMPVERILEAELAVEPKTETYVEANMGLNPSSPNDPVTNICQAADKQLFTLVEWAKRIPHFSELPLDDQVILLRAGWNELLIASFSHRSIAVKDGILLATGLHVHRNSAHSAGVGAIFDRVLTELVSKMRDMQMDKTELGCLRAIVLFNPDSKGLSNPAEVEALREKVYASLEAYCKHKYPEQPGRFAKLLLRLPALRSIGLKCLEHLFFFKLIGDTPIDTFLMEMLEAP
modifications: UAB110
As to B3, the Kd in the assay with GRIP-1 [1] was found to be 26 µM; with GRIP-1 [2] it was 1.5 µM.
